Patent US20180010140A1 (WASHINGTON STATE UNIVERSITY, published 2018)

B1: BPM5 (At5 g21010), yeast two-hybrid construct (other, Arabidopsis thaliana, UniProt Q1EBV6 1-410, looked up)
chain: MSESVIQGSNPDRVLSPTSSKSVTQTVNGSHQFVIQGYSLAKGMGIGKHIASDNFSVGGYQWGIFFYPDGKNPEDNSSYVSVFIALASEGTEVRALFELALVDQSGKGKHKVHSHFERSLDGGPYTLKYRGSMWGYKRFFRRSILETSDYLKDDCLIINCTVGVVVSEILCPQLHSVHVPDSELGSHFGVLLDSMEGSDITFNIAGEKFLAHKLVLAARSPFFKSKFFSEFEANNTEVTINDLEPKVFKALLQFMYKDSLPEDVEPATAHTFERLKLSEIYETLIVKVLAAADKYDLIRLRLLCESHICKGVSVKSVAKILALADRYNAKELKGVCLKFTAENLAAVLETDAYQQMKDECVTLQSELLKAVAGHEEGSNSTGGAKSQSVWAQLSDGGGDTTSRHVRQRTT
notes: Yeast two-hybrid fusion
B2: WRI1 (At3 g54320), yeast two-hybrid construct (other, Arabidopsis thaliana, UniProt Q6X5Y6 1-430, looked up)
chain: MKKRLTTSTCSSSPSSSVSSSTTTSSPIQSEAPRPKRAKRAKKSSPSGDKSHNPTSPASTRRSSIYRGVTRHRWTGRFEAHLWDKSSWNSIQNKKGKQVYLGAYDSEEAAAHTYDLAALKYWGPDTILNFPAETYTKELEEMQRVTKEEYLASLRRQSSGFSRGVSKYRGVARHHHNGRWEARIGRVFGNKYLYLGTYNTQEEAAAAYDMAAIEYRGANAVTNFDISNYIDRLKKKGVFPFPVNQANHQEGILVEAKQEVETREAKEEPREEVKQQYVEEPPQEEEEKEEEKAEQQEAEIVGYSEEAAVVNCCIDSSTIMEMDRCGDNNELAWNFCMMDTGFSPFLTDQNLANENPIEYPELFNELAFEDNIDFMFDDGKHECLNLENLDCCVVGRESPPSSSSPLSCLSTDSASSTTTTTTSVSCNYLV
notes: Yeast two-hybrid fusion (bait pBTM116-D9 against BPM1 as prey; both bait and prey in the self-assembly test); also called WRINKLED1
B3: BPM3 (At2 g39760), yeast two-hybrid construct (other)
chain: MSTVGGIEQLIPDSVSTSFIETVNGSHQFTIQGYSLAKGMSPGKFIQSDIFSVGGYDWAIYFYPDGKNPEDQSSYISLFIALASDSNDIRALFELTLMDQSGKGKHKVHSHFDRALEGGPYTLKYKGSMWGYKRFFKRSALETSDYLKDDCLVINCTVGVVRARLEGPKQYGIVLPLSNMGQGLKDLLDSEVGCDIAFQVGDETYKAHKLILAARSPVFRAQFFGPIGNNNVDRIVIDDIEPSIFKAMLSFIYTDVLPNVHEITGSTSASSFTNMIQHLLAAADLYDLARLKILCEVLLCEKLDVDNVATTLALAEQHQFLQLKAFCLEFVASPANLGAVMKSEGFKHLKQSCPTLLSELLNTVAAADKSSTSGQSNKKRSASSVLGCDTTNVRQLRRRTRKEVRAVS
notes: Yeast two-hybrid fusion (pACT2 or pBTM116-D9)
B4: BPM1 (At5 g19000), yeast two-hybrid construct (other, Arabidopsis thaliana, UniProt Q8L765 1-407, looked up)
chain: MGTTRVCSEVSSGSSKSLSQSLTVSTSTTETVNGFHEFKICGYSLAKGVGVGKYVASDTFMVGGYSWAIYFYPDGKSPEDNSSYVSLFIALASEGADVRALFELTLVDQSGNGKHKVHSHFGRALDSGPYTLKYRGSMWGYKRFFRRSSLESSDYLKENSLLVRCRVGVVKSVTEGPRYYNIPVPVSNLGQQLGNLLESGKGCDVVFQVDGETFNAHKLVLATRSPVFNAQLFGPLGDRNTKCITIEDMEAPIFKVLLHFIYWDELPDMQELIGTDSTLASTLVAQHLLAAADRYALERLKAICESKLCEGVAINTVATTLALAEQHHCLQLKAVCLKFVALPENLKAVMQTDGFDYLKESCPSLLTELLQYVARLSEHSVIVSGHRKEIFADGCDASGRRVKPRLH
notes: also called BTB/POZ-MATH protein 1

Legend:
Test in all cases: yeast two-hybrid
[1] = molecular target: B2
Protocol: (§1) If not otherwise stated in this and subsequent FIGS. 30 μg of total protein extract were loaded as input, and experiments were done with 14-days old seedlings.
(§2) SDII selection medium supplemented with uracil and His was used as a transformation control, while for interaction studies, SDIV minimal medium was chosen without uracil and His supplements. Photos were taken from single spots 7 days after plating. […] Extraction and washing buffers contained at all times 1 mM PMSF (Sigma-Aldrich) and 10 μM MG132 (Sigma-Aldrich) to prevent proteolytic and proteasomal activities, respectively. […] In general, proteins were incubated at least 1.5 h at 4° C. under shaking conditions before being centrifuged.

[2] = molecular target: T1, BPM4 (At3 g03740), yeast two-hybrid construct (Arabidopsis thaliana, UniProt Q9SRV1 1-465, limits assumed)
T1 construct: Yeast two-hybrid fusion
T1 sequence (looked up): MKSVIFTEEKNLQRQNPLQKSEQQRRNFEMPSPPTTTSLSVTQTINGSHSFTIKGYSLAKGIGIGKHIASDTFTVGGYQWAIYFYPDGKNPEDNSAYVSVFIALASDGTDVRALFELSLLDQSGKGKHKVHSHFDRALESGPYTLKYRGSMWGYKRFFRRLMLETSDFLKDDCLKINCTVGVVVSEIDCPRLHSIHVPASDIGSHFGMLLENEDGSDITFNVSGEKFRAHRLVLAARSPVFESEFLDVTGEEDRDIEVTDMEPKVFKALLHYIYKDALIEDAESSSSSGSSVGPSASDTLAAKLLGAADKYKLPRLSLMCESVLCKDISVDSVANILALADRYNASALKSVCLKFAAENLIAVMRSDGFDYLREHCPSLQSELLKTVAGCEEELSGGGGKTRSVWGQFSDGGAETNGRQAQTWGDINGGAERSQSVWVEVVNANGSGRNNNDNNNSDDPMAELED
Protocol: as §1, §2

yeast two-hybrid = molecular target: the molecule itself
Protocol: as §1, §2

Binder	binding result [1]	binding result [2]	binding result (yeast two-hybrid)
B1	binds		
B2		binds	binds
B3	binds		
B4	binds		
